Test results taken from patent US20100209425A1.

Key:
[1] = biological target: hen-egg lysozyme (HEL) from chicken egg white (chicken) (UniProt P00698); assay: flow cytometry titration of biotinylated HEL on yeast-displayed D1.3 scFv; PBS with BSA
[2] = biological target: hen-egg lysozyme (HEL) from chicken egg white (chicken) (UniProt P00698); assay: yeast display immunoprecipitation with 5x10^7 yeast from RBE4 lysate holding 34 nM HEL, gel densitometry
[3] = biological target: hen-egg lysozyme (HEL) from chicken egg white (chicken) (UniProt P00698); assay: flow cytometry titration of biotinylated HEL on yeast-displayed D1.3 scFv; PBS with Triton X-100
[4] = biological target: hen-egg lysozyme (HEL) from chicken egg white (chicken) (UniProt P00698); assay: flow cytometry titration of biotinylated HEL on yeast-displayed D1.3 scFv; PBS with n-octyl-beta-D-glucopyranoside

Chain of UniProt P00698 (P00698 19-147): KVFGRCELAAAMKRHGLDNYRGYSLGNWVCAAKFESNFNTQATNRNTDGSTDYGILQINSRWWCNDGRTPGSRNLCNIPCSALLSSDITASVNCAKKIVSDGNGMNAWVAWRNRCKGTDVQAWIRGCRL

Kd [1]: 1.07 nM
percent of the theoretical immunoprecipitation yield [2]: 70%
Kd [3]: 0.488 nM
Kd [4]: 2.61 nM
Substance: anti-hen egg lysozyme D1.3 scFv displayed on yeast
